“And” between values parts separate entries of the source, which are not always exact repeats. Equal values may be shown once.
T1: human NPRA (human, UniProt P16066 33-1061)
T1 sequence (looked up): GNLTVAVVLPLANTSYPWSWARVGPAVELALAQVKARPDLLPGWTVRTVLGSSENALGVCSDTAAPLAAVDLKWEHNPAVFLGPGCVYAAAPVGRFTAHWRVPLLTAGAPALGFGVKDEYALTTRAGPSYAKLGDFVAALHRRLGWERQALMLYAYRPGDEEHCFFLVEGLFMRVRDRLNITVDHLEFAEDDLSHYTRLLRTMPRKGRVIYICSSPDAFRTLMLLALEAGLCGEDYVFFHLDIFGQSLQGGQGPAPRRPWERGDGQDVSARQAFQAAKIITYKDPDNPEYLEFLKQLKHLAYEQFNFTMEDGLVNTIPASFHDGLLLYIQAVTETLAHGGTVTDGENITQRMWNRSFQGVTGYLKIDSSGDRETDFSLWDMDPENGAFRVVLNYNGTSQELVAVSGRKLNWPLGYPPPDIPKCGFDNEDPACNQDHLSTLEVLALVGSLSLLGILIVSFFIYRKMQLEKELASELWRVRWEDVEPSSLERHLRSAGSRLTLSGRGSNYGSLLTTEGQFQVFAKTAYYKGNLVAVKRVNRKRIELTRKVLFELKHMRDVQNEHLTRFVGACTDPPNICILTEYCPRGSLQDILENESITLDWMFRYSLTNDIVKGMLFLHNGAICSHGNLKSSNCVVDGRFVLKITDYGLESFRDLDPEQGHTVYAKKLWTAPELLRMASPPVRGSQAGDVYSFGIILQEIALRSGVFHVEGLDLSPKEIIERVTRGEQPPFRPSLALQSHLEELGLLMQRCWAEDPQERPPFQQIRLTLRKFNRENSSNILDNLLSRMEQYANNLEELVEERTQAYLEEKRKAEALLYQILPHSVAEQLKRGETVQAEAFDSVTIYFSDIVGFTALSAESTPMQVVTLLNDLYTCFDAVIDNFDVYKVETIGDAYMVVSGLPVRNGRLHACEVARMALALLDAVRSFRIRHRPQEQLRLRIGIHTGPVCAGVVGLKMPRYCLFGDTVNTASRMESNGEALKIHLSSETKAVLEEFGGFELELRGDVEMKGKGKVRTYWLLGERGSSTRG

T2: human NPRA (human, UniProt P16066 33-1061)
T2 sequence (looked up): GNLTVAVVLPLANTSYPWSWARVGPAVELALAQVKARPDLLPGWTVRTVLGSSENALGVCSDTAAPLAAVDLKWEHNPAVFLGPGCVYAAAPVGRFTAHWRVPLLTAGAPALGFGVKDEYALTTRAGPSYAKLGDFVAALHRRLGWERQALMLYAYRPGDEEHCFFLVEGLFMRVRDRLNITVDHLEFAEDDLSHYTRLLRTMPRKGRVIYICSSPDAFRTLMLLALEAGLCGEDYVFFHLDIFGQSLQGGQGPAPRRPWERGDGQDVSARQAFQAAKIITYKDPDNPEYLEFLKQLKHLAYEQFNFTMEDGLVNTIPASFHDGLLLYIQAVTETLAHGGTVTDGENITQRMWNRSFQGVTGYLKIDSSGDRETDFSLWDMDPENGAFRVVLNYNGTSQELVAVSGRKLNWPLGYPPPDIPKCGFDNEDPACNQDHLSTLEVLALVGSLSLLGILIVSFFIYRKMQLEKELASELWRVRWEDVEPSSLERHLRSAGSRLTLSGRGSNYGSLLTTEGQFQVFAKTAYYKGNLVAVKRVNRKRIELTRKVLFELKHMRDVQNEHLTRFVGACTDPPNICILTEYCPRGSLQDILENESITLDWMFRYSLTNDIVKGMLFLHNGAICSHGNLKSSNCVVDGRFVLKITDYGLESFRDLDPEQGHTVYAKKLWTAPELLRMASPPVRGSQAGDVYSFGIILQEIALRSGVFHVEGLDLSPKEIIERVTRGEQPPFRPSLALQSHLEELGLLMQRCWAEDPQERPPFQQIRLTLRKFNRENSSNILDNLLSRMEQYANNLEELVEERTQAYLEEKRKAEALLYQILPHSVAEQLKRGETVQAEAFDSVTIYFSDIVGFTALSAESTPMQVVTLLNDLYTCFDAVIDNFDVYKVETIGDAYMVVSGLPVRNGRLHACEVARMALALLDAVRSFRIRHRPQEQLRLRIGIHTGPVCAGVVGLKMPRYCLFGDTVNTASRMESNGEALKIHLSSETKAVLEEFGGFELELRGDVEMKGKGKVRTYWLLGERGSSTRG

B1: TPP-10294 (antibody, human IgG1, lambda)
heavy: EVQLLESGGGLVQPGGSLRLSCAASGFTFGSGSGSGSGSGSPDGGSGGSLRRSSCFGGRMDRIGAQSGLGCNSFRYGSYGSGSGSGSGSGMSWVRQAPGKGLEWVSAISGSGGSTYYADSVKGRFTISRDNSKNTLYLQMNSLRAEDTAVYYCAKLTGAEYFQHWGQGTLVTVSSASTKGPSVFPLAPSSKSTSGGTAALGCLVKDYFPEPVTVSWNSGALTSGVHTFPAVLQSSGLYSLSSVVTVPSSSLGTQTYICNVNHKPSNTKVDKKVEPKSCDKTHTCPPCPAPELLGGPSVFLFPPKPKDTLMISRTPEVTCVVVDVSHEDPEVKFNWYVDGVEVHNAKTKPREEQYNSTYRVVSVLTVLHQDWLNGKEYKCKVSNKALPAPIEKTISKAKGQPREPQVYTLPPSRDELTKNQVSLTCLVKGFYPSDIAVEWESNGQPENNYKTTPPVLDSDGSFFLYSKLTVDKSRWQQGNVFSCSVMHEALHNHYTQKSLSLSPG
light: QSVLTQPPSVSGAPGQRVTISCTGSSSNIGAGYDVHWYQQLPGTAPKLLIYGNSNRPSGVPDRFSGSKSGTSASLAITGLQAEDEADYYCQSYDSSLSGVVFGGGTKLTVLGQPKAAPSVTLFPPSSEELQANKATLVCLISDFYPGAVTVAWKADSSPVKAGVETTTPSKQSNNKYAASSYLSLTPEQWKSHRSYSCQVTHEGSTVEKTVAPTECS
B2: TPP-10290 (antibody)
heavy: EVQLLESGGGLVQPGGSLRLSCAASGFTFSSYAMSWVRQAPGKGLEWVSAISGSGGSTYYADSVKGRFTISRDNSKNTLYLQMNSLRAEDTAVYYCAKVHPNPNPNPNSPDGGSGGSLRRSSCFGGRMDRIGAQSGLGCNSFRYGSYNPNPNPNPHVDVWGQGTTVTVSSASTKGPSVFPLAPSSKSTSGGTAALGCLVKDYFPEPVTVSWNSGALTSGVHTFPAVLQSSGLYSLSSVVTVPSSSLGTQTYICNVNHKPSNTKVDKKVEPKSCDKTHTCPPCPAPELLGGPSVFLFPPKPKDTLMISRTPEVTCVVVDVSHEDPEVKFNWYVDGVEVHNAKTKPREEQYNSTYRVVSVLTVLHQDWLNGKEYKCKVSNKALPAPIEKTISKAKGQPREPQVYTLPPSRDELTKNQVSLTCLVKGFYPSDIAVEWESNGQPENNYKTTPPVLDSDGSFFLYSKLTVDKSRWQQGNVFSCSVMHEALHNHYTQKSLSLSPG
light: QSVLTQPPSVSGAPGQRVTISCTGSSSNIGAGYDVHWYQQLPGTAPKLLIYGNSNRPSGVPDRFSGSKSGTSASLAITGLQAEDEADYYCQSYDSSLSGVVFGGGTKLTVLGQPKAAPSVTLFPPSSEELQANKATLVCLISDFYPGAVTVAWKADSSPVKAGVETTTPSKQSNNKYAASSYLSLTPEQWKSHRSYSCQVTHEGSTVEKTVAPTECS
B3: TPP-10283 (antibody, human IgG1, lambda)
heavy: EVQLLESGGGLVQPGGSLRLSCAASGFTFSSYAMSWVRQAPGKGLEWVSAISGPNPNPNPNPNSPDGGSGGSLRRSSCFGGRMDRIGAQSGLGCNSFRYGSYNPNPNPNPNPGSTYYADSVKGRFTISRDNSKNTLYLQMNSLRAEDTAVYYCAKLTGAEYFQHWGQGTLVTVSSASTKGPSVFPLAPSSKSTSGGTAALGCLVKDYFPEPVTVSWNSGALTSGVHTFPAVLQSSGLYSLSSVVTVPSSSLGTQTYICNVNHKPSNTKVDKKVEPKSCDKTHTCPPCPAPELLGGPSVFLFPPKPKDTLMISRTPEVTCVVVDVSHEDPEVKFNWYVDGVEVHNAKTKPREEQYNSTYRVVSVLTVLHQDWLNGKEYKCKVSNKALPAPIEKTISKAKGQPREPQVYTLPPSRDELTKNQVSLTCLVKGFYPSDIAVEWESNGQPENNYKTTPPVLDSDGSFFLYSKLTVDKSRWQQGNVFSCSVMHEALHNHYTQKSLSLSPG
light: QSVLTQPPSVSGAPGQRVTISCTGSSSNIGAGYDVHWYQQLPGTAPKLLIYGNSNRPSGVPDRFSGSKSGTSASLAITGLQAEDEADYYCQSYDSSLSGVVFGGGTKLTVLGQPKAAPSVTLFPPSSEELQANKATLVCLISDFYPGAVTVAWKADSSPVKAGVETTTPSKQSNNKYAASSYLSLTPEQWKSHRSYSCQVTHEGSTVEKTVAPTECS
B4: TPP-10282 (antibody, human IgG1, lambda)
heavy: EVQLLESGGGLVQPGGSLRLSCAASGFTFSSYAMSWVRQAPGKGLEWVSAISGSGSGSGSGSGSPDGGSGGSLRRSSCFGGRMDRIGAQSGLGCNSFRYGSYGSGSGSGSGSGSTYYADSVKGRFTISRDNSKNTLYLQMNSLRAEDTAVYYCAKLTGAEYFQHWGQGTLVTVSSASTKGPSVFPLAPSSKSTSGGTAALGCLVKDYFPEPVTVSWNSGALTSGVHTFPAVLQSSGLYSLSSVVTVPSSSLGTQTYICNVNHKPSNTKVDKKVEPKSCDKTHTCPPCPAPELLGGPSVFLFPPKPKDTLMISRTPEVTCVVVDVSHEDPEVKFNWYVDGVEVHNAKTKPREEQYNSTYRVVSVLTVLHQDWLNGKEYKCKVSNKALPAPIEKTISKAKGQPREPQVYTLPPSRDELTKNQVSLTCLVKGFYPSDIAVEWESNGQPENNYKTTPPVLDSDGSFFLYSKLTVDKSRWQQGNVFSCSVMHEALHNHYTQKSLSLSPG
light: QSVLTQPPSVSGAPGQRVTISCTGSSSNIGAGYDVHWYQQLPGTAPKLLIYGNSNRPSGVPDRFSGSKSGTSASLAITGLQAEDEADYYCQSYDSSLSGVVFGGGTKLTVLGQPKAAPSVTLFPPSSEELQANKATLVCLISDFYPGAVTVAWKADSSPVKAGVETTTPSKQSNNKYAASSYLSLTPEQWKSHRSYSCQVTHEGSTVEKTVAPTECS
B5: TPP-10765 (antibody, human IgG1, lambda)
heavy: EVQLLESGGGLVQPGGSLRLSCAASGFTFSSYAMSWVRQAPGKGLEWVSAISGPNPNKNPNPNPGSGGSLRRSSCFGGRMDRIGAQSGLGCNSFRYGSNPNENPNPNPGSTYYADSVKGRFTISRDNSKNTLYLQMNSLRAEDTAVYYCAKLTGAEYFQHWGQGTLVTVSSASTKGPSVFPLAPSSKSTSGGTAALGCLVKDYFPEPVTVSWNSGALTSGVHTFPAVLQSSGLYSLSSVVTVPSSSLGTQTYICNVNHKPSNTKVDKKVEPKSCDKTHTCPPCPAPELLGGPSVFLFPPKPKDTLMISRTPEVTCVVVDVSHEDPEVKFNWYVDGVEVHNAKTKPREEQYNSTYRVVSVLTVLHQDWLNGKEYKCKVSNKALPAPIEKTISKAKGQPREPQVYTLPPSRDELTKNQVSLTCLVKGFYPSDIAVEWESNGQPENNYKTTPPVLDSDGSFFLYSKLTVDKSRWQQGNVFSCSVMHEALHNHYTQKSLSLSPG
light: QSVLTQPPSVSGAPGQRVTISCTGSSSNIGAGYDVHWYQQLPGTAPKLLIYGNSNRPSGVPDRFSGSKSGTSASLAITGLQAEDEADYYCQSYDSSLSGVVFGGGTKLTVLGQPKAAPSVTLFPPSSEELQANKATLVCLISDFYPGAVTVAWKADSSPVKAGVETTTPSKQSNNKYAASSYLSLTPEQWKSHRSYSCQVTHEGSTVEKTVAPTECS
B6: TPP-10847 (antibody, human IgG1, lambda)
heavy: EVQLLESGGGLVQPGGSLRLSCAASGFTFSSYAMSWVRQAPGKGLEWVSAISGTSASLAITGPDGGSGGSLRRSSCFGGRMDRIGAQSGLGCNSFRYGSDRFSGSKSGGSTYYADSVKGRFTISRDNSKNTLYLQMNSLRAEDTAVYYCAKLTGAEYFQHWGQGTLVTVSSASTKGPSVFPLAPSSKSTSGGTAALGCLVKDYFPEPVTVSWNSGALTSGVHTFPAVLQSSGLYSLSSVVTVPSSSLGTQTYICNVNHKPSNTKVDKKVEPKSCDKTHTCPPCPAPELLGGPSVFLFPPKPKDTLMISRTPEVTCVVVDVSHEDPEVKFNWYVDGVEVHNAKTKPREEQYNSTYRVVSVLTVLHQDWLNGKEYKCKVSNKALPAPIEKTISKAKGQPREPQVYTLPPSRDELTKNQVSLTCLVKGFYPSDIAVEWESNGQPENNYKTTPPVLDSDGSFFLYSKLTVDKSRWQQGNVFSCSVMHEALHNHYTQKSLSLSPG
light: QSVLTQPPSVSGAPGQRVTISCTGSSSNIGAGYDVHWYQQLPGTAPKLLIYGNSNRPSGVPDRFSGSKSGTSASLAITGLQAEDEADYYCQSYDSSLSGVVFGGGTKLTVLGQPKAAPSVTLFPPSSEELQANKATLVCLISDFYPGAVTVAWKADSSPVKAGVETTTPSKQSNNKYAASSYLSLTPEQWKSHRSYSCQVTHEGSTVEKTVAPTECS

Key:
[1] = target: T1, human NPRA; assay: cell-based or functional assay
[2] = target: T2, human NPRA; assay: cell-based or functional assay; remark: listed apart in the source

Row | Binder | activity rcs [1] [%] | average rel logEC50 [1] [log vs TPP-5661] | rel. logEC50 pcs 4 [1] [log vs TPP-5661] | rel. logEC50 pcs 7 [1] [log vs TPP-5661] | rel. activity rcs [1] [log vs TPP-5661] | rel. logEC50 pcs 5 [1] [log vs TPP-5661] | rel. logEC50 pcs 6 [1] [log vs TPP-5661] | further results
1 | B1 | 41 | -0.3 | -0.2 | 0 | – | – | – | rel. logEC50* pcs [1]: -0.5 log vs TPP-5661 and -0.6 log vs TPP-5661 and -0.4 log vs TPP-5661
2 | B2 | – | – | – | – | – | – | – | activity rcs [2]: 84%; average rel logEC50 [2]: -0.5 log vs TPP-5661; rel. logEC50 pcs 2 [2]: -0.8 log vs TPP-5661; rel. logEC50 pcs 3 [2]: -0.1 log vs TPP-5661
3 | B3 | 83 | -0.8 | – | – | -0.8 | -0.8 | – | –
4 | B4 | 30 | 0.1 | 0.1 | – | 0.3 | 0.2 | – | rel. logEC50 pcs 1 [1]: 0.3 log vs TPP-5661; rel. logEC50 pcs 2 [1]: -0.2 log vs TPP-5661
5 | B5 | 72 | -0.4 | – | 0.2 | -0.9 | -0.9 | -0.4 | –
6 | B6 | – | -0.5 | – | – | – | 0 | -0.9 | –

Reference: patent publication US20210147504A1 (Bayer, published 2021)
